# In patent publication US6340461B1 (priority 1996, dated 2002):
# Columns and labels:
# [1] = design: species or system New Zealand white rabbits; settings: rabbit, in vivo
# [2] = design: species or system baboons; settings: in vivo, sc
# [3] = molecular target: T cell receptor Vβ8.3 on murine T cells (mouse); experiment: cell-based or functional assay
# [4] = molecular target: T cell receptor Vβ2 on murine tumor-draining lymph node T cells (mouse); experiment: cell-based or functional assay
# [5] = molecular target: T cell receptor Vβ8.1 on murine T cells (mouse); experiment: cell-based or functional assay
# [6] = molecular target: T cell receptor Vβ6 on murine tumor-draining lymph node T cells (mouse); experiment: cell-based or functional assay
# [7] = molecular target: T cell receptor Vβ13 on murine tumor-draining lymph node T cells (mouse); experiment: cell-based or functional assay
# [8] = molecular target: T cell receptor Vβ14 on murine tumor-draining lymph node T cells (mouse); experiment: cell-based or functional assay
# [9] = molecular target: T cell receptor Vβ9 on murine tumor-draining lymph node T cells (mouse); experiment: cell-based or functional assay
# [10] = molecular target: T cell receptor Vβ5.1, 5.2 on murine tumor-draining lymph node T cells (mouse); experiment: cell-based or functional assay
# [11] = molecular target: T cell receptor Vβ11 on murine tumor-draining lymph node T cells (mouse); experiment: cell-based or functional assay
# [12] = molecular target: T cell receptor Vβ8.2 on murine T cells (mouse); experiment: cell-based or functional assay
# [13] = molecular target: T cell receptor Vβ3 on murine T cells (mouse); experiment: cell-based or functional assay
# [14] = molecular target: T cell receptor Vβ7 on murine tumor-draining lymph node T cells (mouse); experiment: cell-based or functional assay
# [15] = molecular target: T cell receptor Vβ12 on murine tumor-draining lymph node T cells (mouse); experiment: cell-based or functional assay
# [16] = molecular target: T cell receptor Vβ17 on murine tumor-draining lymph node T cells (mouse); experiment: cell-based or functional assay
compound,measurement,setting,value
CC(C)Cc1ccc(C(C)C(=O)O)cc1 (stereo not drawn) [Ibuprofen],effect on SEB induced fever and anorexia,[1],reduced febrile responses exceeding 105° F. and shortened the period of anorexia and inanition
same,effect on SEB induced anorexia and malaise,[2],abrogate some of the anorexia and malaise
staphylococcal enterotoxin B (SEB) (from UniProt P01552 28-266),% of Total T Cells (Vβ use of tumor-draining LN T cells stimulated with SEB),[3],19.8%
same,% of Total T Cells (Vβ use of tumor-draining LN T cells stimulated with SEB),[4],0%
same,% of Total T Cells (Vβ use of tumor-draining LN T cells stimulated with SEB),[5],4.8%
same,% of Total T Cells (Vβ use of tumor-draining LN T cells stimulated with SEB),[6],0%
same,% of Total T Cells (Vβ use of tumor-draining LN T cells stimulated with SEB),[7],< 1%
same,% of Total T Cells (Vβ use of tumor-draining LN T cells stimulated with SEB),[8],0%
same,% of Total T Cells (Vβ use of tumor-draining LN T cells stimulated with SEB),[9],0%
same,% of Total T Cells (Vβ use of tumor-draining LN T cells stimulated with SEB),[10],1.2%
same,% of Total T Cells (Vβ use of tumor-draining LN T cells stimulated with SEB),[11],2.9%
same,% of Total T Cells (Vβ use of tumor-draining LN T cells stimulated with SEB),[12],15%
same,% of Total T Cells (Vβ use of tumor-draining LN T cells stimulated with SEB),[13],32.5%
same,% of Total T Cells (Vβ use of tumor-draining LN T cells stimulated with SEB),[14],< 1%
same,% of Total T Cells (Vβ use of tumor-draining LN T cells stimulated with SEB),[15],0%
Staphylococcus aureus enterotoxin A (SEA) (from UniProt P0A0L2 25-257),% of Total T Cells (Vβ use of tumor-draining LN T cells stimulated with SEA),[4],< 1%
same,% of Total T Cells (Vβ use of tumor-draining LN T cells stimulated with SEA),[6],< 1%
same,% of Total T Cells (Vβ use of tumor-draining LN T cells stimulated with SEA),[7],1.5%
same,% of Total T Cells (Vβ use of tumor-draining LN T cells stimulated with SEA),[16],0%
same,% of Total T Cells (Vβ use of tumor-draining LN T cells stimulated with SEA),[8],< 1%
same,% of Total T Cells (Vβ use of tumor-draining LN T cells stimulated with SEA),[9],0%
same,% of Total T Cells (Vβ use of tumor-draining LN T cells stimulated with SEA),[10],< 1%
same,% of Total T Cells (Vβ use of tumor-draining LN T cells stimulated with SEA),[11],34.3%
same,% of Total T Cells (Vβ use of tumor-draining LN T cells stimulated with SEA),[12],1.5%
same,% of Total T Cells (Vβ use of tumor-draining LN T cells stimulated with SEA),[13],29.9%
same,% of Total T Cells (Vβ use of tumor-draining LN T cells stimulated with SEA),[14],< 1%
same,% of Total T Cells (Vβ use of tumor-draining LN T cells stimulated with SEA),[15],7.4%
